Laboratory results taken from EP4813403A1 (Hangzhou Zhongmeihuadong Pharmaceutical Co., Ltd., dated 2025).

Target: T1, human GIP receptor (human, UniProt P48546 22-466)
T1 sequence (looked up): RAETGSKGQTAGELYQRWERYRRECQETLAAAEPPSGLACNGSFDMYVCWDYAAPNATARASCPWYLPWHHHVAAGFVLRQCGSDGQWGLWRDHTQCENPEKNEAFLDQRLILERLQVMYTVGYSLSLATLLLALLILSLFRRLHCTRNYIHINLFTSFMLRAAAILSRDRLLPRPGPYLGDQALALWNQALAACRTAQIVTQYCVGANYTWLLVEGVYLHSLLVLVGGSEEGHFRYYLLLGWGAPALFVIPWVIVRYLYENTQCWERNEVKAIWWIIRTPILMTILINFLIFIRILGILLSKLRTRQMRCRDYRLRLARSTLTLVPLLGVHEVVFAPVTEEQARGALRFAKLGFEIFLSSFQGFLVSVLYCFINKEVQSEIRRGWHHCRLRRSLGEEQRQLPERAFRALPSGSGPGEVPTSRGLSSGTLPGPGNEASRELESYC
Test: cell-based or functional assay

B1: P007 (peptide)
peptide: YXEGTXTSDYXIXLDKQAQAEFVKWLLKGGPSSGAPPPSK
modifications: Aib at 2; αMePhe at 6; Aib at 11; Aib at 13; K at position 24 ε-amino conjugated with ([2-(2-amino-ethoxy)-ethoxy]-acetyl)2-(γ-Glu)1-CO-(CH2)16-CO2H; C-terminal primary amide
  EC50 value (ratio: EC50 of endogenous ligand / EC50 of test compound), LANCE Ultra cAMP assay, HEK293/GIPR cells: 1.15 ratio
